Test results: US20080112961A1

What was measured:
[1] = molecular target: soluble monomeric FcγRIIIA, the extracellular region of FcγRIIIA joined to the linker-AVITAG sequence (UniProt P08637); assay: BIAcore, Ab on BSA-FITC
[2] = molecular target: soluble monomeric FcγRIIIA, the extracellular region of FcγRIIIA joined to the linker-AVITAG sequence (UniProt P08637); assay: ELISA
[3] = molecular target: FcγRIIB-Fc fusion protein, soluble dimer: extracellular domain of FcγRIIB fused to the hinge-CH2-CH3 domain of human IgG2 (human) (UniProt P31994); assay: BIAcore, Ab on BSA-FITC
FcγRIIB-Fc fusion protein, soluble dimer: extracellular domain of FcγRIIB fused to the hinge-CH2-CH3 domain of human IgG2 (human), sequence (P31994 43-217 limits assumed): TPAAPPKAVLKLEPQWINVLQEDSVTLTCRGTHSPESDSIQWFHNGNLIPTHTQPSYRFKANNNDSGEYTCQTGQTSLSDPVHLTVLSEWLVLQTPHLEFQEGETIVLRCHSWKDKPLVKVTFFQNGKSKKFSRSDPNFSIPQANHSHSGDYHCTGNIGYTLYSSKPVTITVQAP

[4] = molecular target: FcγRIIB (form not stated) (UniProt P31994); assay: ELISA
FcγRIIB (form not stated), sequence (P31994 43-217 limits assumed): as above

Q: How did the Kd [1] turn out when “ch4-4-20 Mut 14 (K334E, K288N) (from UniProt P01857 1-330) (antibody)” was run?
A: 75.4 nM

Q: With “ch4-4-20 Mut 6 (S219V) (from UniProt P01857 1-330) (antibody)” as the substance, how does the ELISA, OD [2] read?
A: 0.6 OD

Q: What about the Kd [3] of the same substance?
A: 66.5 nM

Q: What about the Kd [1] of the same substance?
A: 264 nM

Q: How did the ELISA binding, fold vs Wt [4] turn out when “ch4-4-20 MGFc 28 (N315I, A379M, D399E) (antibody)” was run?
A: 9 X

Q: Which Kd [1] does the source give for “ch4-4-20 Mut 10 (P396L, A330S, K288N) (from UniProt P01857 1-330) (antibody)” here?
A: 128 nM

Q: With “ch4-4-20 wild type (from UniProt P01857 1-330) (antibody)” as the substance, how does the ELISA, OD [2] read?
A: 0.5 OD
